Test results: patent EP4755449A2 (CHUGAI SEIYAKU KABUSHIKI KAISHA, dated 2026)

T1: human Fc gamma RIIaR extracellular domain, His-tagged (human, UniProt P12318 34-217)
T1 construct: also called FcgRIIaR; human Fc gamma RIIa (type R)
T1 chain: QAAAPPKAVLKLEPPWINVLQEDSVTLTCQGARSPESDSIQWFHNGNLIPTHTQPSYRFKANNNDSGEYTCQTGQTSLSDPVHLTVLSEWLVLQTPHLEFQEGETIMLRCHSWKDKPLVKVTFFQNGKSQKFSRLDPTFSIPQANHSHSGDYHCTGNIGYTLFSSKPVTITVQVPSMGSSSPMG

T2: GST-hMSTN 61-160aa (human, UniProt O14793 61-160)
T2 construct: not shown: GST tag of pGEX4.1 vector
T2 sequence: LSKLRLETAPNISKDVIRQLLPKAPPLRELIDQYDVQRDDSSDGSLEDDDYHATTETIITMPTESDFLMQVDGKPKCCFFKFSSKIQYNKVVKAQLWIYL

T3: GST-hMSTN 81-180aa (human, UniProt A1C2U3 81-180 (Pongo pygmaeus entry))
T3 construct: not shown: GST tag of pGEX4.1 vector
T3 sequence: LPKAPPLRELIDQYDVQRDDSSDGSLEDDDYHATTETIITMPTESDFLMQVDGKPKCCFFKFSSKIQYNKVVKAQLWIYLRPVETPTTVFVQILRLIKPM

T4: GST-hMSTN 101-200aa (human, UniProt A1C2U3 101-200 (Pongo pygmaeus entry))
T4 construct: not shown: GST tag of pGEX4.1 vector
T4 sequence: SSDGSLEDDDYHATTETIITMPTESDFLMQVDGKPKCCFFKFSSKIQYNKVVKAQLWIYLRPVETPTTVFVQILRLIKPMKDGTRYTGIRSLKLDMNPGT

T5: GST-hMSTN 121-220aa (human, UniProt A1C2U3 121-220 (Pongo pygmaeus entry))
T5 construct: not shown: GST tag of pGEX4.1 vector
T5 sequence: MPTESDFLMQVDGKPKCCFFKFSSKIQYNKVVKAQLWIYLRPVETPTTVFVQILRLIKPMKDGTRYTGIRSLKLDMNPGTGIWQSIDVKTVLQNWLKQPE

T6: GST-hMSTN 141-241aa (human, UniProt A1C2U3 141-241 (Pongo pygmaeus entry))
T6 construct: not shown: GST tag of pGEX4.1 vector
T6 sequence: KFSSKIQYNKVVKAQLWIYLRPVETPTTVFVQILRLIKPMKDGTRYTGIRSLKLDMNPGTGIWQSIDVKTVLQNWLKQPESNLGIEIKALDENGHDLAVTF


Legend:
[1] = biological target: T1, human Fc gamma RIIaR extracellular …; assay: SPR 25C
[2] = biological target: T7, human Fc gamma RIIIaV extracellular domain, His-tagged (human, UniProt P08637 17-208); assay: SPR 25C
T7 construct: also called FcgRIIIaV
T7 sequence (P08637 17-208 F176V): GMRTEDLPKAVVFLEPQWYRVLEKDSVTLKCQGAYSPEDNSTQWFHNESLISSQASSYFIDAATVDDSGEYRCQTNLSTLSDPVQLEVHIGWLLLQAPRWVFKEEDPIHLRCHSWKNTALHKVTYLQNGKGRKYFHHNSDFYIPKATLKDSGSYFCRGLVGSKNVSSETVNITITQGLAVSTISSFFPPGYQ

GST-hMSTN 61-160aa = biological target: T2, GST-hMSTN 61-160aa; assay: Western blot
GST-hMSTN 81-180aa = biological target: T3, GST-hMSTN 81-180aa; assay: Western blot
GST-hMSTN 101-200aa = biological target: T4, GST-hMSTN 101-200aa; assay: Western blot
GST-hMSTN 121-220aa = biological target: T5, GST-hMSTN 121-220aa; assay: Western blot
GST-hMSTN 141-241aa = biological target: T6, GST-hMSTN 141-241aa; assay: Western blot

Row | relative binding [1] [parent B3=100] | relative binding [2] [parent B3=100] | binding result (GST-hMSTN 61-160aa) | binding result (GST-hMSTN 81-180aa) | binding result (GST-hMSTN 101-200aa) | binding result (GST-hMSTN 121-220aa) | binding result (GST-hMSTN 141-241aa) | Binder
1 | 0 | 0 | – | – | – | – | – | GpH7-B3 G237D/GpL16-k0 (antibody, human IgG1, kappa, copies: 2 + 2) heavy: not shown light: DIVMTQSPLSLPVTPGEPASISCQASESLVHSNRNTYLHWYLQKPGQSPQLLIYKVSNRFSGVPDRFSGSGSGTDFTLKISRVEAEDVGVYYCSQNTHVPPTFGQGTKVEIERTVAAPSVFIFPPSDEQLKSGTASVVCLLNNFYPREAKVQWKVDNALQSGNSQESVTEQDSKDSTYSLSSTLTLSKADYEKHKVYACEVTHQGLSSPVTKSFNRGEC
2 | – | – | no binding | no binding | no binding | no binding | no binding | MST1538 (antibody, human IgG1, kappa, V domains shown) VH: QSLEESGGGLVKPGGTLTLTCKASGIDFSSYYYMCWVRQAPGKGLEWIACIYAGISGSTYYASWAKGRFTISKTSSTTVTLQMTSLTAADTATYFCARDPYHFDYGSLWGPGTLVTVSS VL: ALVMTQTPASVSAAVGGTVTINCQASQSVYGGNELSWYQQEPGQPPKLLIYSASKLASGVPSRFKGSGSGTQFTLTISGVQCDDAAAYYCAGYRTYSDDDNAFGGGTKVEIKR
3 | – | – | no binding | no binding | no binding | no binding | no binding | MST1572 (antibody, human IgG1, kappa, V domains shown) VH: QSVEESGGRLVTPGTPLTLTCTVSGFSLSSYAMSWVRQAPGKGLEWIGIIYGVGSTYYASWAKGRFTISKTSTTVDLKIASPTTEDTATYFCARDDYGWGYTNLWGPGTLVTVSS VL: QVLTQTPSSVSAAVGGTVTINCQSSQSVYNNNYLAWFQQKPGQPPKLLIYDASKLASGVPSRFKGSGSGTQFTLTISGVQCDDAATYYCQGSYYSSGWYRAFGGGTKVEIKR
